Measured values as given in PMC9482650, “Quantitative fragmentomics allow affinity mapping of interactomes” (Nature Communications, 2022).

T1: SHANK1, Q9Y566
T1 sequence (Q9Y566 658-767, limits assumed, looked up): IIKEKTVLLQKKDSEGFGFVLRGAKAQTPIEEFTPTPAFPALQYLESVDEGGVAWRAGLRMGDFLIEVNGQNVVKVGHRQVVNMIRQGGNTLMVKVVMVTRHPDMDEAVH

T2: MPDZ_12, O75970
T2 sequence (O75970 1857-1958, limits assumed, looked up): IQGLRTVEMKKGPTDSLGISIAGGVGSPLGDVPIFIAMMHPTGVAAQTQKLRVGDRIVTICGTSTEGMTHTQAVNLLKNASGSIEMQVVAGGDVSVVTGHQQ

T3: LIN7C, Q9NUP9
T3 sequence (Q9NUP9 88-185, limits assumed, looked up): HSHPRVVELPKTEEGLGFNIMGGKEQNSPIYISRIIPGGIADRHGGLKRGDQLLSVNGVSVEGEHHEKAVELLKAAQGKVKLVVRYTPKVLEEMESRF

T4: SIPA1L2, Q9P2F8
T4 sequence (Q9P2F8 945-1036, limits assumed, looked up): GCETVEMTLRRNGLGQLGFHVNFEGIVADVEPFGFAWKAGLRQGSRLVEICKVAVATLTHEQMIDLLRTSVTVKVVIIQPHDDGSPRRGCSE

T5: GRIP1_4, Q9Y3R0
T5 sequence (Q9Y3R0 467-571, limits assumed, looked up): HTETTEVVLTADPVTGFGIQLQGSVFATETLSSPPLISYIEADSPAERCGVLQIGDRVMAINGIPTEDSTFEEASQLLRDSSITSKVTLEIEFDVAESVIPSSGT

T6: RHPN1, Q8TCX5
T6 sequence (Q8TCX5 508-602, limits assumed, looked up): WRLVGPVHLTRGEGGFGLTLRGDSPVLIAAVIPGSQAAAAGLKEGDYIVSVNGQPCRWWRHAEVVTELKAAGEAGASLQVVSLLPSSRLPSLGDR

T7: CARD11, Q9BXL7
T7 sequence (Q9BXL7 662-765, limits assumed, looked up): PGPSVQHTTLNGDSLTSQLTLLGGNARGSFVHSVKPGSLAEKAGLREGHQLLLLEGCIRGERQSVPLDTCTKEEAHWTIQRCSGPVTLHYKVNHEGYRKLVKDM

T8: PARD3B_1, Q8TEW8
T8 sequence (Q8TEW8 196-299, limits assumed, looked up): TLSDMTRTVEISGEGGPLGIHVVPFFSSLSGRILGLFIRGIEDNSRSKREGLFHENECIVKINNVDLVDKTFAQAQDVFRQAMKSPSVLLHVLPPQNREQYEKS


Columns and labels:
Test in all cases: holdup assay
Design in all cases: key: below the threshold = too weak to quantify, mostly under pKd 3.1 to 4
Settings in all cases: plain residues with an end cap or a label only (N-terminal biotin on a linker: ado-ado)
DLG1_3, Q12959 = target: DLG1_3, Q12959
Sequence of DLG1_3, Q12959 (Q12959 457-571): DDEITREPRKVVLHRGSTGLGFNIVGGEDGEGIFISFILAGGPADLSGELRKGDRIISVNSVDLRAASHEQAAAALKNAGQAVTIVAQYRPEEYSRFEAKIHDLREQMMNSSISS

GRIP2_4, Q9C0E4 = target: GRIP2_4, Q9C0E4
Sequence of GRIP2_4, Q9C0E4 (Q9C0E4 446-548): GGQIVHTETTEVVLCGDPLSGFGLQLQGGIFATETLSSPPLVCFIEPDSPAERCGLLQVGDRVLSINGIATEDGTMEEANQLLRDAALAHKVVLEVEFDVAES

GRID2IP_2, A4D2P6 = target: GRID2IP_2, A4D2P6
Sequence of GRID2IP_2, A4D2P6 (A4D2P6 272-370): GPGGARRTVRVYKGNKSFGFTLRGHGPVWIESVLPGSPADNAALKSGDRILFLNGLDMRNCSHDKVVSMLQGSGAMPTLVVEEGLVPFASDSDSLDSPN

GORASP1, Q9BQQ3 = target: GORASP1, Q9BQQ3
Sequence of GORASP1, Q9BQQ3 (Q9BQQ3 1-208): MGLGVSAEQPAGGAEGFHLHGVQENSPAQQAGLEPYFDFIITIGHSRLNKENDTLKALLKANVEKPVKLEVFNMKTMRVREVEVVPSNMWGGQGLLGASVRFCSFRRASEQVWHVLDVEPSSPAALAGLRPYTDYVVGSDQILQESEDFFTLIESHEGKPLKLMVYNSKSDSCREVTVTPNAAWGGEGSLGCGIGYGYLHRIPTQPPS

SHANK1, Q9Y566 = target: T1, SHANK1, Q9Y566
MPDZ_12, O75970 = target: T2, MPDZ_12, O75970
LIN7C, Q9NUP9 = target: T3, LIN7C, Q9NUP9
Inadl_2, Q8NI35 = target: Inadl_2, Q8NI35
Sequence of Inadl_2, Q8NI35 (Q8NI35 238-335): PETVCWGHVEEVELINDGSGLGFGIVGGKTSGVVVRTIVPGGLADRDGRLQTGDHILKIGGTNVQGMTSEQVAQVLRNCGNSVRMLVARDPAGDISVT

MAGI2_2, Q86UL8 = target: MAGI2_2, Q86UL8
Sequence of MAGI2_2, Q86UL8 (Q86UL8 410-522): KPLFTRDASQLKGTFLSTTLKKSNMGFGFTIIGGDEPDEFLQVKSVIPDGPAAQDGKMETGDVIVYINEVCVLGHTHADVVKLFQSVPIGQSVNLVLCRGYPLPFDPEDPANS

FRMPD4, Q14CM0 = target: FRMPD4, Q14CM0
Sequence of FRMPD4, Q14CM0 (Q14CM0 67-160): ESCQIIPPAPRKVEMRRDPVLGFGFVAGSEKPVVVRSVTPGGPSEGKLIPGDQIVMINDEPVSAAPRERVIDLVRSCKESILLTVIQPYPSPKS

DLG4_1, P78352 = target: DLG4_1, P78352
Sequence of DLG4_1, P78352 (P78352 62-152): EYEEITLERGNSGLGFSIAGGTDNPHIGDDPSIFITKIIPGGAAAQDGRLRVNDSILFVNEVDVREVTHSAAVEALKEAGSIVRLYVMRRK

SNX27, Q96L92 = target: SNX27, Q96L92
NHERF4_4, Q86UT5 = target: NHERF4_4, Q86UT5
Sequence of NHERF4_4, Q86UT5 (Q86UT5 464-550): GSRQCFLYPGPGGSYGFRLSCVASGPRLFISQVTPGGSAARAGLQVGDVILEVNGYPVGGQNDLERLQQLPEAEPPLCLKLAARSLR

SIPA1L2, Q9P2F8 = target: T4, SIPA1L2, Q9P2F8
MAGI2_6, Q86UL8 = target: MAGI2_6, Q86UL8
Sequence of MAGI2_6, Q86UL8 (Q86UL8 1141-1229): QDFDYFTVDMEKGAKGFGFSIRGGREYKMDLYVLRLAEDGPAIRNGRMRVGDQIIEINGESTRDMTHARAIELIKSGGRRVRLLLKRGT

GRIP1_4, Q9Y3R0 = target: T5, GRIP1_4, Q9Y3R0
RHPN1, Q8TCX5 = target: T6, RHPN1, Q8TCX5
Inadl_1, Q8NI35 = target: Inadl_1, Q8NI35
Sequence of Inadl_1, Q8NI35 (Q8NI35 113-229): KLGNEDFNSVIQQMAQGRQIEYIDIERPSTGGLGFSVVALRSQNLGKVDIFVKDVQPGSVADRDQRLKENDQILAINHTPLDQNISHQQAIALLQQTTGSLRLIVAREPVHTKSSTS

PTPN3, P26045 = target: PTPN3, P26045
Sequence of PTPN3, P26045 (P26045 505-587): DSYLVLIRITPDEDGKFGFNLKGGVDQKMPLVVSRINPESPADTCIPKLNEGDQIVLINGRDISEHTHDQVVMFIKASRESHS

NHERF4_1, Q86UT5-2 = target: NHERF4_1, Q86UT5-2
Sequence of NHERF4_1, Q86UT5-2 (Q86UT5 other isoform, or with tags, fused parts or gaps): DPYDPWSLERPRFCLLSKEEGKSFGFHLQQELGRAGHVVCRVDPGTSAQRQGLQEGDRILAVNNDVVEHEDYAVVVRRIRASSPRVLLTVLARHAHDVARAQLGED

LNX1_3, Q8TBB1 = target: LNX1_3, Q8TBB1
Sequence of LNX1_3, Q8TBB1 (Q8TBB1 500-596): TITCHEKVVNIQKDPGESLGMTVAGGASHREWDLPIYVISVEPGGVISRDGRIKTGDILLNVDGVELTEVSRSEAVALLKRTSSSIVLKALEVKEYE

CARD11, Q9BXL7 = target: T7, CARD11, Q9BXL7
SCRIB_3, Q14160 = target: SCRIB_3, Q14160
Sequence of SCRIB_3, Q14160 (Q14160 999-1103): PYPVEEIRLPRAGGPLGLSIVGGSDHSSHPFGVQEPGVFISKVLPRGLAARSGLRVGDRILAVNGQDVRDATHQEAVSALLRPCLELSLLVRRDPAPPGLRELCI

Inadl_6, Q8NI35 = target: Inadl_6, Q8NI35
Sequence of Inadl_6, Q8NI35 (Q8NI35 1058-1167): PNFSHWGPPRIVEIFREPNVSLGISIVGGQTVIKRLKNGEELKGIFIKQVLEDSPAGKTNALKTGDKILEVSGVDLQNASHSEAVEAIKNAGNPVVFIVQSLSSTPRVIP

HTRA2, O43464 = target: HTRA2, O43464
Sequence of HTRA2, O43464 (O43464 355-458): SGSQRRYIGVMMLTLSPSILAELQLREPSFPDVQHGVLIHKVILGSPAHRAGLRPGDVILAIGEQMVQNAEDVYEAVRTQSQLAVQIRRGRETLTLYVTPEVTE

PARD3B_1, Q8TEW8 = target: T8, PARD3B_1, Q8TEW8
FRMPD2_2, Q68DX3 = target: FRMPD2_2, Q68DX3
Sequence of FRMPD2_2, Q68DX3 (Q68DX3 944-1038): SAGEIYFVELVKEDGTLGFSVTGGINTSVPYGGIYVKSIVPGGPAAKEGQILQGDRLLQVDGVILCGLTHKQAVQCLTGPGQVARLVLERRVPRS

LDB3, O75112 = target: LDB3, O75112
Sequence of LDB3, O75112 (O75112 1-94): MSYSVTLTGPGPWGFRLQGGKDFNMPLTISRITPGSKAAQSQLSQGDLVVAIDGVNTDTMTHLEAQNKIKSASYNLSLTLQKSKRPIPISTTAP

NHERF2_2, Q15599 = target: NHERF2_2, Q15599
Sequence of NHERF2_2, Q15599 (Q15599 142-238): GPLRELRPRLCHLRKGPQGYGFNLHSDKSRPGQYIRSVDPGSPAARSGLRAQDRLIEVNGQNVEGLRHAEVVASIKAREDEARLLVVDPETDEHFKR

Row | Binder | pKd (DLG1_3, Q12959) | pKd (GRIP2_4, Q9C0E4) | pKd (GRID2IP_2, A4D2P6) | pKd (GORASP1, Q9BQQ3) | pKd (SHANK1, Q9Y566) | pKd (MPDZ_12, O75970) | pKd (LIN7C, Q9NUP9) | pKd (Inadl_2, Q8NI35) | pKd (MAGI2_2, Q86UL8) | pKd (FRMPD4, Q14CM0) | pKd (DLG4_1, P78352) | pKd (SNX27, Q96L92) | pKd (NHERF4_4, Q86UT5) | pKd (SIPA1L2, Q9P2F8) | pKd (MAGI2_6, Q86UL8) | pKd (GRIP1_4, Q9Y3R0) | pKd (RHPN1, Q8TCX5) | pKd (Inadl_1, Q8NI35) | pKd (PTPN3, P26045) | pKd (NHERF4_1, Q86UT5-2) | other results
1 | RGKNRRQSIF [CDK18, Q07002] | 3.71 | below the threshold | below the threshold | below the threshold | below the threshold | 3.58 | 3.5 | below the threshold | below the threshold | 3.65 | below the threshold | below the threshold | below the threshold | below the threshold | below the threshold | below the threshold | 3.58 | below the threshold | 3.77 | 3.87 | pKd (LNX1_3, Q8TBB1): below the threshold; pKd (CARD11, Q9BXL7): below the threshold; pKd (SCRIB_3, Q14160): 3.65; pKd (Inadl_6, Q8NI35): below the threshold; pKd (HTRA2, O43464): below the threshold; pKd (PARD3B_1, Q8TEW8): 3.89; pKd (FRMPD2_2, Q68DX3): below the threshold; pKd (LDB3, O75112): below the threshold; pKd (NHERF2_2, Q15599): below the threshold
2 | VISSDDLTEL [CAPN6, Q9Y6Q1] | below the threshold | below the threshold | 4.34 | below the threshold | 4.84 | below the threshold | below the threshold | below the threshold | below the threshold | 4.73 | below the threshold | 4.17 | below the threshold | below the threshold | 3.59 | below the threshold | 4.5 | below the threshold | 4.12 | 3.94 | pKd (LNX1_3, Q8TBB1): below the threshold; pKd (CARD11, Q9BXL7): below the threshold; pKd (SCRIB_3, Q14160): 3.86; pKd (Inadl_6, Q8NI35): below the threshold; pKd (HTRA2, O43464): below the threshold; pKd (PARD3B_1, Q8TEW8): below the threshold; pKd (FRMPD2_2, Q68DX3): below the threshold; pKd (LDB3, O75112): 3.53; pKd (NHERF2_2, Q15599): 4.28

More lines, main results first:

Row | pKd (DLG1_3, Q12959) | pKd (GRIP2_4, Q9C0E4) | pKd (GRID2IP_2, A4D2P6) | pKd (GORASP1, Q9BQQ3) | pKd (SHANK1, Q9Y566) | pKd (MPDZ_12, O75970) | pKd (LIN7C, Q9NUP9) | pKd (Inadl_2, Q8NI35) | pKd (MAGI2_2, Q86UL8) | pKd (FRMPD4, Q14CM0) | pKd (DLG4_1, P78352) | pKd (SNX27, Q96L92) | pKd (NHERF4_4, Q86UT5) | pKd (SIPA1L2, Q9P2F8) | pKd (MAGI2_6, Q86UL8) | pKd (GRIP1_4, Q9Y3R0) | pKd (RHPN1, Q8TCX5) | pKd (Inadl_1, Q8NI35) | pKd (PTPN3, P26045) | pKd (NHERF4_1, Q86UT5-2) | Binder | other results
3 | below the threshold | below the threshold | 3.56 | 4.55 | below the threshold | below the threshold | below the threshold | below the threshold | below the threshold | below the threshold | below the threshold | 3.75 | below the threshold | below the threshold | below the threshold | below the threshold | below the threshold | below the threshold | below the threshold | 4.03 | PSVYSRSQYV [CLDN8, P56748] | pKd (LNX1_3, Q8TBB1): below the threshold; pKd (CARD11, Q9BXL7): below the threshold; pKd (SCRIB_3, Q14160): below the threshold; pKd (Inadl_6, Q8NI35): below the threshold; pKd (HTRA2, O43464): 4.46; pKd (PARD3B_1, Q8TEW8): 3.58; pKd (FRMPD2_2, Q68DX3): below the threshold; pKd (LDB3, O75112): below the threshold; pKd (NHERF2_2, Q15599): below the threshold
4 | below the threshold | below the threshold | 4.65 | 5 | 5.29 | 4.9 | 3.58 | 3.92 | 3.57 | 5.15 | 3.49 | 5.02 | 4.21 | below the threshold | 4.9 | below the threshold | 4.64 | 4.52 | 4.74 | 4.46 | NKSEPFLTWL [WWTR1, Q9GZV5] | pKd (LNX1_3, Q8TBB1): below the threshold; pKd (CARD11, Q9BXL7): below the threshold; pKd (SCRIB_3, Q14160): 5.14; pKd (Inadl_6, Q8NI35): 5.68; pKd (HTRA2, O43464): 4.51; pKd (PARD3B_1, Q8TEW8): 4.57; pKd (FRMPD2_2, Q68DX3): 4.29; pKd (LDB3, O75112): 4.47; pKd (NHERF2_2, Q15599): 5.27
5 | below the threshold | below the threshold | below the threshold | below the threshold | below the threshold | 3.75 | 3.69 | below the threshold | below the threshold | below the threshold | below the threshold | below the threshold | below the threshold | below the threshold | below the threshold | below the threshold | below the threshold | below the threshold | below the threshold | below the threshold | QLGSPTADLA [SIPA1, Q96FS4] | pKd (LNX1_3, Q8TBB1): below the threshold; pKd (CARD11, Q9BXL7): below the threshold; pKd (SCRIB_3, Q14160): below the threshold; pKd (Inadl_6, Q8NI35): below the threshold; pKd (HTRA2, O43464): below the threshold; pKd (PARD3B_1, Q8TEW8): below the threshold; pKd (FRMPD2_2, Q68DX3): below the threshold; pKd (LDB3, O75112): below the threshold; pKd (NHERF2_2, Q15599): below the threshold
